Source: patent publication US20190300590A1 (PROTAGONIST THERAPEUTICS, published 2019)
Bridges are numbered along the chain shown (N, C = ends). [ ]: non-standard residue; d: D form. Phe(3,4-(OMe)2) = COc1ccc(C[C@H](N)C(=O)O)cc1OC; Phe(4-CONH2) = NC(=O)c1ccc(C[C@H](N)C(=O)O)cc1; 2Nal = N[C@@H](Cc1ccc2ccccc2c1)C(=O)O; AEF = NCCOc1ccc(C[C@H](N)C(=O)O)cc1; Pen = CC(C)(S)[C@H](N)C(=O)O; αMeV = CC(C)[C@](C)(N)C(=O)O; Aib = CC(C)(N)C(=O)O

B1: Hy-CADWMCYWHEYG-NH2 (peptide)
peptide: H-CADWMCYWHEYG-NH2
modifications: disulfide 1-6 (inferred)
B2: Ac-Phe-[Pen]-QTWQ-[Pen]-[Phe[4-(2-aminoethoxy)]-[2-Nal]-[Aib]-[Lys(Ac)]-NN-NH2 (peptide)
peptide: Ac-F[Pen]QTWQ[Pen][AEF][2Nal][Aib]K(Ac)NN-NH2
modifications: disulfide 2-7
SMILES: CC(=O)NCCCC[C@H](NC(=O)C(C)(C)NC(=O)[C@H](Cc1ccc2ccccc2c1)NC(=O)[C@H](Cc1ccc(OCCN)cc1)NC(=O)[C@H]1NC(=O)[C@H](CCC(N)=O)NC(=O)[C@H](Cc2c[nH]c3ccccc23)NC(=O)[C@H]([C@@H](C)O)NC(=O)[C@H](CCC(N)=O)NC(=O)[C@@H](NC(=O)[C@H](Cc2ccccc2)NC(C)=O)C(C)(C)SSC1(C)C)C(=O)N[C@@H](CC(N)=O)C(=O)N[C@@H](CC(N)=O)C(N)=O
B3: Hy-CADWVCYWHTFG-NH2 (peptide)
peptide: H-CADWVCYWHTFG-NH2
modifications: disulfide 1-6 (inferred)
B4: Ac-CADWVCYWHEFG-NH2 (peptide)
peptide: Ac-CADWVCYWHEFG-NH2
modifications: disulfide 1-6 (inferred)
B5: Ac-CRDWVCYWHTFG-NH2 (peptide)
peptide: Ac-CRDWVCYWHTFG-NH2
modifications: disulfide 1-6 (inferred)
B6: Hy-CTDWKCYWHEFG-NH2 (peptide)
peptide: H-CTDWKCYWHEFG-NH2
modifications: disulfide 1-6 (inferred)
B7: Ac-CADWVCYWHEHSERVG-NH2 (peptide)
peptide: Ac-CADWVCYWHEHSERVG-NH2
modifications: disulfide 1-6 (inferred)
B8: Ac-R-[Pen]-QTWQ-[Pen]-[Phe[4-(2-aminoethoxy)]-[2-Nal]-[Aib]-[Lys(Ac)]-NN-NH2 (peptide)
peptide: Ac-R[Pen]QTWQ[Pen][AEF][2Nal][Aib]K(Ac)NN-NH2
modifications: disulfide 2-7
SMILES: CC(=O)NCCCC[C@H](NC(=O)C(C)(C)NC(=O)[C@H](Cc1ccc2ccccc2c1)NC(=O)[C@H](Cc1ccc(OCCN)cc1)NC(=O)[C@H]1NC(=O)[C@H](CCC(N)=O)NC(=O)[C@H](Cc2c[nH]c3ccccc23)NC(=O)[C@H]([C@@H](C)O)NC(=O)[C@H](CCC(N)=O)NC(=O)[C@@H](NC(=O)[C@H](CCCNC(=N)N)NC(C)=O)C(C)(C)SSC1(C)C)C(=O)N[C@@H](CC(N)=O)C(=O)N[C@@H](CC(N)=O)C(N)=O
B9: Hy-CADWVCY-[1-Nal]-HTFG-NH2 (peptide)
peptide: CADWVCYXHTFG
modifications: [1-Nal]; -NH2; disulfide
B10: Hy-CADWVCY-[2-Nal]-HTFG-NH2 (peptide)
peptide: CADWVCYXHTFG
modifications: [2-Nal]; -NH2; disulfide
B11: Hy-CPNWECYWHRFG-NH2 (peptide)
peptide: H-CPNWECYWHRFG-NH2
modifications: disulfide 1-6 (inferred)
B12: Ac-CADWVCYWHFHQLRDA-NH2 (peptide)
peptide: Ac-CADWVCYWHFHQLRDA-NH2
modifications: disulfide 1-6 (inferred)
B13: Ac-(D)Phe-[Pen]-QTWQ-[Pen]-[Phe[4-(2-aminoethoxy)]-[2-Nal]-[Aib]-[Lys(Ac)]-NN-NH2 (peptide)
peptide: Ac-[dF][Pen]QTWQ[Pen][AEF][2Nal][Aib]K(Ac)NN-NH2
modifications: disulfide 2-7
SMILES: CC(=O)NCCCC[C@H](NC(=O)C(C)(C)NC(=O)[C@H](Cc1ccc2ccccc2c1)NC(=O)[C@H](Cc1ccc(OCCN)cc1)NC(=O)[C@H]1NC(=O)[C@H](CCC(N)=O)NC(=O)[C@H](Cc2c[nH]c3ccccc23)NC(=O)[C@H]([C@@H](C)O)NC(=O)[C@H](CCC(N)=O)NC(=O)[C@@H](NC(=O)[C@@H](Cc2ccccc2)NC(C)=O)C(C)(C)SSC1(C)C)C(=O)N[C@@H](CC(N)=O)C(=O)N[C@@H](CC(N)=O)C(N)=O
B14: Hy-CSNWECYWHHYG-NH2 (peptide)
peptide: H-CSNWECYWHHYG-NH2
modifications: disulfide 1-6 (inferred)
B15: Ac-[Pen]-NTWQ-[Pen]-[Phe[4-(2-aminoethoxy)]-[2-Nal]-[Aib]-[Lys(Ac)]-N-[βAla]-NH2 (peptide)
peptide: XNTWQXFXXKNA
modifications: Ac; Pen-Pen disulfide; Phe[4-(2-aminoethoxy)]; 2-Nal; Aib; Lys(Ac); βAla; NH2
B16: Ac-(D)Arg-[Pen]-QTWQ-[Pen]-[Phe[4-(2-aminoethoxy)]-[2-Nal]-[Aib]-[Lys(Ac)]-NN-NH2 (peptide)
peptide: Ac-[dR][Pen]QTWQ[Pen][AEF][2Nal][Aib]K(Ac)NN-NH2
modifications: disulfide 2-7
SMILES: CC(=O)NCCCC[C@H](NC(=O)C(C)(C)NC(=O)[C@H](Cc1ccc2ccccc2c1)NC(=O)[C@H](Cc1ccc(OCCN)cc1)NC(=O)[C@H]1NC(=O)[C@H](CCC(N)=O)NC(=O)[C@H](Cc2c[nH]c3ccccc23)NC(=O)[C@H]([C@@H](C)O)NC(=O)[C@H](CCC(N)=O)NC(=O)[C@@H](NC(=O)[C@@H](CCCNC(=N)N)NC(C)=O)C(C)(C)SSC1(C)C)C(=O)N[C@@H](CC(N)=O)C(=O)N[C@@H](CC(N)=O)C(N)=O
B17: Ac-[Pen]-NTWQ-[Pen]-[Phe[4-(2-aminoethoxy)]-[2-Nal]-[hLeu]-[Lys(Ac)]-N-[βAla]-NH2 (peptide)
peptide: XNTWQXFXLKNA
modifications: Ac; Pen-Pen disulfide; Phe[4-(2-aminoethoxy)]; 2-Nal; hLeu; Lys(Ac); βAla; NH2
B18: Ac-[2-Nal]-[Pen]-QTWQ-[Pen]-[Phe[4-(2-aminoethoxy)]-[2-Nal]-[Aib]-[Lys(Ac)]-NN-NH2 (peptide)
peptide: XXQTWQXFXXKNN
modifications: Ac; 2-Nal twice; Pen-Pen disulfide; Phe[4-(2-aminoethoxy)]; Aib; Lys(Ac); NH2
B19: Hy-CSDWVCYWHVYG-NH2 (peptide)
peptide: H-CSDWVCYWHVYG-NH2
modifications: disulfide 1-6 (inferred)
B20: Hy-CTTWKCYWHQYG-NH2 (peptide)
peptide: H-CTTWKCYWHQYG-NH2
modifications: disulfide 1-6 (inferred)
B21: Hy-CRTWTCYWHVYG-NH2 (peptide)
peptide: H-CRTWTCYWHVYG-NH2
modifications: disulfide 1-6 (inferred)
B22: Ac-[Pen]-QTWQ[Pen]-[Phe(4-CONH2)]-[Phe(3,4-OMe2)]-[α-MeVal]-[Lys(Ac)]-NN-NH2 (peptide)
peptide: Ac-[Pen]QTWQ[Pen][Phe(4-CONH2)][Phe(3,4-(OMe)2)][αMeV]K(Ac)NN-NH2
modifications: disulfide 1-6 (inferred)
B23: Ac-E-[Pen]-QTWQ-[Pen]-[Phe[4-(2-aminoethoxy)]-[2-Nal]-[Aib]-[Lys(Ac)]-NN-NH2 (peptide)
peptide: Ac-E[Pen]QTWQ[Pen][AEF][2Nal][Aib]K(Ac)NN-NH2
modifications: disulfide 2-7
SMILES: CC(=O)NCCCC[C@H](NC(=O)C(C)(C)NC(=O)[C@H](Cc1ccc2ccccc2c1)NC(=O)[C@H](Cc1ccc(OCCN)cc1)NC(=O)[C@H]1NC(=O)[C@H](CCC(N)=O)NC(=O)[C@H](Cc2c[nH]c3ccccc23)NC(=O)[C@H]([C@@H](C)O)NC(=O)[C@H](CCC(N)=O)NC(=O)[C@@H](NC(=O)[C@H](CCC(=O)O)NC(C)=O)C(C)(C)SSC1(C)C)C(=O)N[C@@H](CC(N)=O)C(=O)N[C@@H](CC(N)=O)C(N)=O
B24: Ac-[Pen]-NTWQ-[Pen]-[Phe(4-OMe)]-[2-Nal]-[hLeu]-[Lys(Ac)]-N-[βAla]-NH2 (peptide)
peptide: XNTWQXFXLKNA
modifications: Ac; Pen-Pen disulfide; Phe(4-OMe); 2-Nal; hLeu; Lys(Ac); βAla; NH2
B25: Ac-(D)Asp-[Pen]-QTWQ-[Pen]-[Phe[4-(2-aminoethoxy)]-[2-Nal]-[Aib]-[Lys(Ac)]-NN-NH2 (peptide)
peptide: Ac-[dD][Pen]QTWQ[Pen][AEF][2Nal][Aib]K(Ac)NN-NH2
modifications: disulfide 2-7
SMILES: CC(=O)NCCCC[C@H](NC(=O)C(C)(C)NC(=O)[C@H](Cc1ccc2ccccc2c1)NC(=O)[C@H](Cc1ccc(OCCN)cc1)NC(=O)[C@H]1NC(=O)[C@H](CCC(N)=O)NC(=O)[C@H](Cc2c[nH]c3ccccc23)NC(=O)[C@H]([C@@H](C)O)NC(=O)[C@H](CCC(N)=O)NC(=O)[C@@H](NC(=O)[C@@H](CC(=O)O)NC(C)=O)C(C)(C)SSC1(C)C)C(=O)N[C@@H](CC(N)=O)C(=O)N[C@@H](CC(N)=O)C(N)=O

Tests used:
IL23R_huFC = biological target: T1, IL23R_huFC (human, UniProt Q5VWK5 24-353); assay: IL23-IL23R competitive ELISA
T1 sequence (looked up): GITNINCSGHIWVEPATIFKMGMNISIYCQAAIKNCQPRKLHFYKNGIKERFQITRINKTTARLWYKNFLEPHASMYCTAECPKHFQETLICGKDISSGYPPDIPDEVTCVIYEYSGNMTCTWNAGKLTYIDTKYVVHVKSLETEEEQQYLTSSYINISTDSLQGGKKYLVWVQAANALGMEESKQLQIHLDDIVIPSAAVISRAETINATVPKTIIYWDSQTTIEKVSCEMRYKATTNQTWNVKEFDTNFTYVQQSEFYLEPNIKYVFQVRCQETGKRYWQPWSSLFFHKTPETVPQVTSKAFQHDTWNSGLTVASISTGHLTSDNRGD

IL-23R on DB cells = biological target: T2, IL-23R on DB cells (human, UniProt Q5VWK5 24-629); assay: cell-based or functional assay
T2 sequence (looked up): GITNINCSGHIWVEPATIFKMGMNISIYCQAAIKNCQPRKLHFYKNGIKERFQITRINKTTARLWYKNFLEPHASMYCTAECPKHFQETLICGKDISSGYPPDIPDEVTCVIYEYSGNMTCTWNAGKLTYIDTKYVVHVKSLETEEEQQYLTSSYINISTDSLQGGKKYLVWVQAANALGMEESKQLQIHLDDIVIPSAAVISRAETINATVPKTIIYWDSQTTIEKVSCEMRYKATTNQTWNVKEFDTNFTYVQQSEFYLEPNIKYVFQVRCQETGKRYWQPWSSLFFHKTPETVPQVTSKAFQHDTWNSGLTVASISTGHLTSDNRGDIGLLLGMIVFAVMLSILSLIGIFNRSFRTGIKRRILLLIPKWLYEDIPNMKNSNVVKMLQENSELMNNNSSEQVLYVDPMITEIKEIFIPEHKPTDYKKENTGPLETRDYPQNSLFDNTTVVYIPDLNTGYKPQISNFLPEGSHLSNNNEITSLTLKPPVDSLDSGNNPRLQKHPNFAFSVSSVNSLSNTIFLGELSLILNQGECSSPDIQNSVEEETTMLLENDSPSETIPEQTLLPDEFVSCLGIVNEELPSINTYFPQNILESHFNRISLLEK

Binder | IC50 (IL23R_huFC) [nM] | pStat3 HTRF IC50 (IL-23R on DB cells) [nM]
B1 | 500 to 1000 | 
B2 |  | < 10
B3 | 500 to 1000 | 
B4 | 500 to 1000 | 
B5 | 500 to 1000 | 
B6 | 500 to 1000 | 
B7 | 500 to 1000 | 
B8 |  | < 10
B9 | 500 to 1000 | 
B10 | 500 to 1000 | 
B11 | 500 to 1000 | 
B12 | 500 to 1000 | 
B13 |  | < 10
B14 | 500 to 1000 | 
B15 |  | < 10
B16 |  | < 10
B17 |  | < 10
B18 |  | < 10
B19 | 500 to 1000 | 
B20 | 500 to 1000 | 
B21 | 500 to 1000 | 
B22 |  | 10 to 25
B23 |  | < 10
B24 |  | < 10
B25 |  | < 10
